The values that follow come from PMC5238724.

The test addresses Drosophila protamine B (Prot B), untagged recombinant (Drosophila). Put plainly: non-reducing SDS-PAGE of disulfide-linked oligomers.

As a reminder, the stoichiometry N is a count of units in the complex or per binding partner. In the case of “Drosophila protamine B (Prot B), untagged recombinant (natural protein)”, the stoichiometry N came to 2.
